Assay results reported in PMC12279946.
Numbering of substitutions follows the chain as printed.

How the values were obtained:
[1] = biological target: SprT-BR;mono-ubiquitin (Ub1) (Homo sapiens?;, UniProt Q9H040;P0CG48 28-245;1-76, |); test: NMR 1H,15N-HSQC; 200 uM DNA + 500 uM Ub1; synergistic severe line broadening; NMR: 20 mM HEPES/KOH pH 7.2, 150 mM KCl, 10% D2O, 308 K; 100 uM protein, 2x dsDNA, 5x Ub1; details: protein: recombinant;recombinant; copies: 1;1; blunt
SprT-BR = biological target: T1, SprT-BR (UniProt Q9H040 28-245); test: NMR 1H,15N-HSQC; 100 uM protein, 200 uM DNA; no ubiquitin; line broadening in ZBD-BR; NMR: 20 mM HEPES/KOH pH 7.2, 150 mM KCl, 10% D2O, 308 K; 100 uM protein, 2x dsDNA, 5x Ub1; details: protein: recombinant; blunt
T1 sequence: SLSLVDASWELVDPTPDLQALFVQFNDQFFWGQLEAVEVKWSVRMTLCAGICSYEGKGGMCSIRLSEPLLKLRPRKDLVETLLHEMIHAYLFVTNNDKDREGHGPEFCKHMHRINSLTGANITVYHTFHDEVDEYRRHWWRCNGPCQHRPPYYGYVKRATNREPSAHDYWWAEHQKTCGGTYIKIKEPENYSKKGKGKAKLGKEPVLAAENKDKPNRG

SprT-BR-L99S = biological target: T2, SprT-BR-L99S (UniProt Q9H040 28-245, L99S); test: NMR 1H,15N-HSQC; 100 uM protein, 200 uM DNA; no ubiquitin; line broadening comparable to WT; NMR: 20 mM HEPES/KOH pH 7.2, 150 mM KCl, 10% D2O, 308 K; 100 uM protein, 2x dsDNA, 5x Ub1; details: protein: recombinant; blunt
T2 sequence: T1 sequence with L72S

Measured: binding result

B1: 15-bp dsDNA (NMR) (dsDNA)
DNA 1: CCTTGCTAGGACATC
DNA 2: GATGTCCTAGCAAGG
binds: all assays above
